The source of these data is patent publication US20180171313A1 (NOVOZYMES A S, published 2018).

This test deals with T1, chaperone fusion protein (Chap-MBP): 6x histidine tag, E. coli maltose binding protein, linker and mature G. … (Gallaecimonas pentaromativorans …).
T1 construct: also called LIF
Kind of test: lipase refolded with the chaperone fusion protein, examined as the complex by differential scanning calorimetry. The procedure:
Sample- and reference-solutions (approx. 0.2 ml) were loaded into the calorimeter (reference: buffer without enzyme) from storage conditions at 10° C. and thermally pre-equilibrated for 20 minutes at 20° C. prior to DSC scan from 20° C. to 100° C. Denaturation temperatures were determined at an accuracy of approximately +/−1° C.
In complex with the chaperone fusion protein, the thermostability of the lipase was high with a Td value in the range of 79.9-94.1° C. In a non-parallel trial under similar experimental conditions the thermostability of Lipolase was measured to have a Td value of 77.0° C.
Background: DSC measures the heat that a sample takes up or gives off during a temperature scan.

B1: Gallaecimonas pentaromativorans lipase (lipase of the invention), mature part (enzyme)
chain: SGYTQTKYPIVLVHGLFGFDSLAGVDYWYGIPQALSQDGATVYVVNVSAANSTEVRGEQLLVQIDNILALTGAKKVNLIGHSHGGPTARYAASISPGKVASVTSVGGVNWGSRFADALRGTIAPGSVSESVIGAAANAFSSIIEFLSGTPADPQDSVAALNALTTAGSLAFNASYPEGMPSQYCGQGQMQAANGVYYFSWSGASPLTNVLDVTDAALGLTSLVFGESNDGLVSSCSSHLGKVIRDDYAMNHLDEVNQTFGLVSLFETNPKTLYRNQANRLKNLGL
notes: The forward primer adds an ATG start codon through its NdeI site; also called G. pentaromativorans lipase
As to B1, the binding result is given as “binds”.
